{
  "source": "paper PMC2367712",
  "molecular_target": "Lsr2 P103A (Mycobacterium tuberculosis, UniProt P9WIP7 1-112, P101A)",
  "assay": "EMSA",
  "data": [
    {"binder": "C42 (dsDNA) DNA 1: AAAAATCTCTAAAAAATCTCTAAAAATCTCTAAAAAATCTCT DNA 2: AGAGATTTTTTAGAGATTTTTAGAGATTTTTTAGAGATTTTT", "values": [
      {"measurement": "binding result", "value": "binds"}
    ]}
  ]
}
